Results on two proteins are retold here after paper PMC6731152 (Molecular cell, 2019).

Data set [1] deals with the molecule itself. Kind of data set: cryo-EM structure.
Data set [2] deals with the molecule itself. Kind of data set: SEC. A general note: In gel filtration, larger molecules generally elute earlier.

In general, stoichiometry N refers to a count of units in the complex or per binding partner.

B1: ^coreAFG3L2^WB/PI (human AFG3L2 catalytic core, residues 272-797, E408Q/E575Q) (domain or fragment)
chain: not shown
Consider B1, for which the “stoichiometry N” value in data set [1] was found to be 6.

B2: ^coreAFG3L2^WB/PI/Δ781−797 (domain or fragment)
chain: not shown
For B2, the binding result in data set [2] is on record as “binds”.
